This note sets out measurements from patent publication US20140363428A1 (Chugai, published 2014).

To fix the notation:
B1: Fv-4-F1245 (antibody)
heavy: QVQLQESGPGLVKPSETLSLTCAVSGHSISHDHAWSWVRQPPGEGLEWIGFISYSGITNYNPSLQGRVTISRDNSKNTLYLQMNSLRAEDTAVYYCARSLARTTAMDYWGEGTLVTVSSASTKGPSVFPLAPSSKSTSGGTAALGCLVKDYFPEPVTVSWNSGALTSGVHTFPAVLQSSGLYSLSSVVTVPSSSLGTQTYICNVNHKPSNTKVDKKVEPKSCDKTHTCPPCPAPELRGGPKVFLFPPKPKDTLYITREPEVTCVVVDVSHEDPEVKFNWYVDGVEVHNAKTKPREEQYNSTYRVVSVLTVLHQDWLNGKEYKCKVSNKALPAPIEKTISKAKGQPREPQVYTLPPSRDELTKNQVSLTCLVKGFYPSDIAVEWESNGQPENNYKTTPPVLDSDGSFFLYSKLTVDKSRWQQGNVFSCSVMHEALHYHVTRKELSLSP
light: DIQMTQSPSSLSASVGDSVTITCQASTDISSHLNWYQQKPGKAPELLIYYGSHLLSGVPSRFSGSGSGTDFTFTISSLEAEDAATYYCGQGNRLPYTFGQGTKVEIERTVAAPSVFIFPPSDEQLKSGTASVVCLLNNFYPREAKVQWKVDNALQSGNSQESVTEQDSKDSTYSLSSTLTLSKADYEKHKVYACEVTHQGLSSPVTKSFNRGEC
notes: L235R/S239K/M252Y/S254T/T256E/N434Y/Y436V/Q438R/S440E (EU)
B2: Fv-4-F1269 (antibody)
heavy: QVQLQESGPGLVKPSETLSLTCAVSGHSISHDHAWSWVRQPPGEGLEWIGFISYSGITNYNPSLQGRVTISRDNSKNTLYLQMNSLRAEDTAVYYCARSLARTTAMDYWGEGTLVTVSSASTKGPSVFPLAPSSKSTSGGTAALGCLVKDYFPEPVTVSWNSGALTSGVHTFPAVLQSSGLYSLSSVVTVPSSSLGTQTYICNVNHKPSNTKVDKKVEPKSCDKTHTCPPCPAPELRGGPKVFLFPPKPKDTLYISRTPEVTCVVVDVSHEDPEVKFNWYVDGVEVHNAKTKPREEQYNSTYRVVSVLTVLHQDWLNGKEYKCKVSNKALPAPIEKTISKAKGQPREPQVYTLPPSRDELTKNQVSLTCLVKGFYPSDIAVEWESNGQPENNYKTTPPVLDSDGSFFLYSKLTVDKSRWQQGNVFSCSVMHEALDYHVTKKDLSLSP
light: DIQMTQSPSSLSASVGDSVTITCQASTDISSHLNWYQQKPGKAPELLIYYGSHLLSGVPSRFSGSGSGTDFTFTISSLEAEDAATYYCGQGNRLPYTFGQGTKVEIERTVAAPSVFIFPPSDEQLKSGTASVVCLLNNFYPREAKVQWKVDNALQSGNSQESVTEQDSKDSTYSLSSTLTLSKADYEKHKVYACEVTHQGLSSPVTKSFNRGEC
B3: Fv-4-F1268 (antibody)
heavy: QVQLQESGPGLVKPSETLSLTCAVSGHSISHDHAWSWVRQPPGEGLEWIGFISYSGITNYNPSLQGRVTISRDNSKNTLYLQMNSLRAEDTAVYYCARSLARTTAMDYWGEGTLVTVSSASTKGPSVFPLAPSSKSTSGGTAALGCLVKDYFPEPVTVSWNSGALTSGVHTFPAVLQSSGLYSLSSVVTVPSSSLGTQTYICNVNHKPSNTKVDKKVEPKSCDKTHTCPPCPAPELRGGPKVFLFPPKPKDTLYISRTPEVTCVVVDVSHEDPEVKFNWYVDGVEVHNAKTKPREEQYNSTYRVVSVLTVLHQDWLNGKEYKCKVSNKALPAPIEKTISKAKGQPREPQVYTLPPSRDELTKNQVSLTCLVKGFYPSDIAVEWESNGQPENNYKTTPPVLDSDGSFFLYSKLTVDKSRWQQGNVFSCSVMHEALDYHVTRKELSLSP
light: DIQMTQSPSSLSASVGDSVTITCQASTDISSHLNWYQQKPGKAPELLIYYGSHLLSGVPSRFSGSGSGTDFTFTISSLEAEDAATYYCGQGNRLPYTFGQGTKVEIERTVAAPSVFIFPPSDEQLKSGTASVVCLLNNFYPREAKVQWKVDNALQSGNSQESVTEQDSKDSTYSLSSTLTLSKADYEKHKVYACEVTHQGLSSPVTKSFNRGEC

T1 sequence (P55899 24-297 limits assumed, chain 1 of 2): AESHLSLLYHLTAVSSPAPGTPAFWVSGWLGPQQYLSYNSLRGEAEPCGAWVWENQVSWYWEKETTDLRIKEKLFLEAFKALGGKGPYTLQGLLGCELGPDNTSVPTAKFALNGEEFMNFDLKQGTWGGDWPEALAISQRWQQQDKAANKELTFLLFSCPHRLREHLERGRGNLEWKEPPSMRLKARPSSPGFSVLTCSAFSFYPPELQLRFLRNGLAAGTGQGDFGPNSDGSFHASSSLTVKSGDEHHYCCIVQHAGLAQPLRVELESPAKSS
T1 sequence (P61769 21-119 limits assumed, chain 2 of 2): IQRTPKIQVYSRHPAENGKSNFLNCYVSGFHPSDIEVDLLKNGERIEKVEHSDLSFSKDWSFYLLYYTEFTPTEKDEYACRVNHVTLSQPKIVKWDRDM

This assay addresses T1, soluble human FcRn (human, UniProt P55899 24-297; P61769 21-119).
T1 construct: Heterodimer of alpha chain and beta2-microglobulin; also called hFcRn
The assay can be described thus: SPR (Biacore), pH 7.0.
For orientation: Kd means the equilibrium constant for the complex coming apart. A low value points to tighter binding. On to B1, for which the Kd was found to be 82 nM. B2 displayed a Kd of 170 nM. Against the preceding molecule, the Kd is about 2.1-fold higher. The result for B3 reads 200 nM.
